This series deals with GST-TCF-4 DBD (UniProt Q9NQB0 265-496). The experiment in a line: EMSA; EMSA, 0.5 ug GST-TCF-4 DBD or GST; buffer, salt, pH and temperature not stated (as in Hlubek et al 2004). Conditions: protein: recombinant; tags: GST; label: end label (probe); blunt. (In EMSA bound probe runs differently from free probe, usually more slowly.)
Sequence of GST-TCF-4 DBD (Q9NQB0 265-496): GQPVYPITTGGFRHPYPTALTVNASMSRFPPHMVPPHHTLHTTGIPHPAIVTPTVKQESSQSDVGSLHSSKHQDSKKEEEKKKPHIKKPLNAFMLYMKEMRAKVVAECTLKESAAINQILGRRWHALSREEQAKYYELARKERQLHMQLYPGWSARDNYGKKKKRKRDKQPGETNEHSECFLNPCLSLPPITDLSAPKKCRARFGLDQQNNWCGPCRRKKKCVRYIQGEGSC

B1: securin-mutTBE (mt) (dsDNA)
DNA 1: ATAAATCACTGCCAAAGGATAGAATTT
DNA 2: AAATTCTATCCTTTGGCAGTGATTTAT
Take B1: the binding result is recorded as “no binding”.

B2: securin-TBE (wt) (dsDNA)
DNA 1: ATAAATCACTATCAAAGGATAGAATTT
DNA 2: AAATTCTATCCTTTGATAGTGATTTAT
Turning to B2, the binding result is on record as “binds”.

For the origin of these results see PMC2361298, “Securin (hPTTG1) expression is regulated by β-catenin/TCF in human colorectal carcinoma”.
